B1: HpUreF(R179A/Y183D)/HpUreD(E140A)-Strep complex, in the cryo-EM sample (complex)
chain 1: MDKGKSVKSTEKSVGMPPKTPKTDNNAHVDNEFLILQVNDAVFPIGSYTHSFGLETYIQQKKVTNKESALEYLKANLSSQFLYTEMLSLKLTYESALQQDLKKILGVEEVIMLSTSPMELRLANQKLGNRFIKTLQAMNELDMGEFFNAYAQKTKDPTHATSYGVFAASLGIELKKALAHYLDAQTSNMVINCVKSVPLSQNDGQKILLSLQSPFNQLIEKTLELDESHLCTASVQNDIKAMQHESLYSRLYMS
chain 2: MNTYAQESKLRLKTKIGADGRCVIEDNFFTPPFKLMAPFYPKDDLAEIMLLAVSPGMMRGDAQDVQLNIGPNCKLRITSQSFEKIHNTEDGFASRDMHIVVGENAFLDFAPFPLIPFENAHFKGNTTISLRSSSQLLYSAIIVAGRVARNELFKFNRLHTKISILQDEKPIYYDNTILDPKTTDLNNMCMFDGYTHYLNLVLVNCPIELSGVRECIEESEGVDGAVSETASSHLCVKALAKGSEPLLHLREKIARLVTQTTTQKV
notes: Helicobacter pylori urease accessory protein HpUreF; Helicobacter pylori urease accessory protein HpUreD (encoded by ureH); one copy of HpUreF and one of HpUreD per urease catalytic unit; also called HpUreFD
B2: HpUreD(E140A) with C-terminal Strep-tag II, in the cryo-EM sample (natural protein)
chain: B1 chain 2
notes: Helicobacter pylori urease accessory protein HpUreD (encoded by ureH); also called UreH
B3: HpUreA (H. pylori urease subunit, fusion of the γ and β domains), in the cryo-EM sample (natural protein)
chain: MKLTPKELDKLMLHYAGELAKKRKEKGIKLNYVEAVALISAHIMEEARAGKKTAAELMQEGRTLLKPDDVMDGVASMIHEVGIEAMFPDGTKLVTVHTPIEANGKLVPGELFLKNEDITINEGKKAVSVKVKNVGDRPVQIGSHFHFFEVNRCLDFDREKTFGKRLDIASGTAVRFEPGEEKSVELIDIGGNRRIFGFNALVDRQADNESKKIALHRAKERGFHGAKSDDNYVKTIKE
notes: Helicobacter pylori urease subunit HpUreA (γ and β domains)
B4: HpUreF(R179A/Y183D), in the cryo-EM sample (natural protein)
chain: B1 chain 1
notes: Helicobacter pylori urease accessory protein HpUreF; everywhere else R179A/Y183D

Experiments:
Assay in all cases: cryo-EM structure; HpUreFD/urease complex coexpressed in E. coli, purified by Strep-Tactin XT and Superose-6 SEC in 50 mM Hepes, 200 mM NaCl, 0.5 mM TCEP (pH 7.5); 0.5 mg/ml on grids; tetrahedral symmetry; 2.3 Å
Conditions in all cases: both partners purified
[1] = target: T1, H. pylori urease (HpUreAB), in the cryo-EM sample (Helicobacter pylori, UniProt P14916 1-238; P69996 1-569)
T1 construct: Helicobacter pylori urease subunit HpUreA (γ and β domains); Helicobacter pylori urease subunit HpUreB (α domain); dodecamer of HpUreAB catalytic units (four trimers); copies: 12 + 12

[2] = target: T2, HpUreB (H. pylori urease subunit, α domain), in the cryo-EM sample (Helicobacter pylori, UniProt P69996 1-569)
T2 construct: Helicobacter pylori urease subunit HpUreB (α domain)

[3] = target: B2

T2 sequence (P69996 whole entry): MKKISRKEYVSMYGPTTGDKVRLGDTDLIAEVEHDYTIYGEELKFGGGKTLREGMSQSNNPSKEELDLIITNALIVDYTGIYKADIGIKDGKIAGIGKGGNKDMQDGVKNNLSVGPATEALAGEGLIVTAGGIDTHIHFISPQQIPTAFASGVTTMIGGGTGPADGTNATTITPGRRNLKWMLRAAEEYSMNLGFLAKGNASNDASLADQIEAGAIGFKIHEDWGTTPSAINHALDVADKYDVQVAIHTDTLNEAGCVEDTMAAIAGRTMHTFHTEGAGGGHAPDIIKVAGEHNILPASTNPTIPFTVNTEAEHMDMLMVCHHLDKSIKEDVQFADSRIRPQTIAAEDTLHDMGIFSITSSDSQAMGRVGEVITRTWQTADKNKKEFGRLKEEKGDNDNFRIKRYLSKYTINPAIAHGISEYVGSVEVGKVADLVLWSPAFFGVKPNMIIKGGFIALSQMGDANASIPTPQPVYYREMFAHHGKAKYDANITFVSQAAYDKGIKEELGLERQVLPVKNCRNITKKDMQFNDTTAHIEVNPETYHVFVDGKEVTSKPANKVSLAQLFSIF
T1 sequence (P69996 whole entry, one chain of several): as the sequence (P69996 whole entry) above

Binder | binding result [1] | binding result [2] | binding result [3]
B1 | binds |  | 
B2 |  | binds | 
B3 |  | binds | binds
B4 |  |  | binds
